According to patent publication US20240002820A1:

Target: Uracil DNA glycosylase (UNG), endogenous in HuH-7 and U-2OS cells (UniProt P13051)
Assay: cell-based or functional assay

UniProt P13051, sequence (P13051 whole entry): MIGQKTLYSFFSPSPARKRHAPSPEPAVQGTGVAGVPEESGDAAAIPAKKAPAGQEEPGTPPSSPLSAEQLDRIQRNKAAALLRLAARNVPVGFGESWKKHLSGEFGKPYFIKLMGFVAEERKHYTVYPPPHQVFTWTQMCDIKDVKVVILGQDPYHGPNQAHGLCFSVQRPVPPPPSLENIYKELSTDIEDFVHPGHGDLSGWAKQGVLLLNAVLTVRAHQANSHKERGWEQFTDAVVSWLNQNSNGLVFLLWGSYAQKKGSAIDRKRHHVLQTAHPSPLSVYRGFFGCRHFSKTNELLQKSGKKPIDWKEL

## Uracil Glycosylase Inhibitor (UGI), overexpressed from plasmid pCDNA3.1-UGI (from UniProt P14739 1-84)
  Fold change relative to GFP in % of edited reads, C-to-A/G or indel, HuH-7 cells, BC22 + UGI overexpression (fold change relative to GFP): -4.53
  Fold change relative to GFP in % of edited reads, C-to-A/G or indel, HuH-7 cells, BC22 + UGI overexpression + siRNA against UNG (fold change relative to GFP): -4.76
  Fold change relative to GFP in % of edited reads, C-to-A/G or indel, HuH-7 cells, BC27 + UGI overexpression (fold change relative to GFP): -9.3
  Fold change relative to GFP in % of edited reads, C-to-A/G or indel, HuH-7 cells, BC27 + UGI overexpression + siRNA against UNG (fold change relative to GFP): -10.8
  Fold change relative to GFP in % of edited reads, C-to-A/G or indel, U-2OS cells, BC22 + UGI overexpression (fold change relative to GFP): -2.97
  Fold change relative to GFP in % of edited reads, C-to-A/G or indel, U-2OS cells, BC22 + UGI overexpression + siRNA against UNG (fold change relative to GFP): -3.46
  Fold change relative to GFP in % of edited reads, C-to-A/G or indel, U-2OS cells, BC27 + UGI overexpression (fold change relative to GFP): -3.09
  Fold change relative to GFP in % of edited reads, C-to-A/G or indel, U-2OS cells, BC27 + UGI overexpression + siRNA against UNG (fold change relative to GFP): -3.48
  Fold change relative to GFP in % of edited reads, C-to-T, HuH-7 cells, BC22 + UGI overexpression (fold change relative to GFP): 1.56
  Fold change relative to GFP in % of edited reads, C-to-T, HuH-7 cells, BC22 + UGI overexpression + siRNA against UNG (fold change relative to GFP): 1.57
  Fold change relative to GFP in % of edited reads, C-to-T, HuH-7 cells, BC27 + UGI overexpression (fold change relative to GFP): 2.13
  Fold change relative to GFP in % of edited reads, C-to-T, HuH-7 cells, BC27 + UGI overexpression + siRNA against UNG (fold change relative to GFP): 2.15
  Fold change relative to GFP in % of edited reads, C-to-T, U-2OS cells, BC22 + UGI overexpression (fold change relative to GFP): 1.21
  Fold change relative to GFP in % of edited reads, C-to-T, U-2OS cells, BC22 + UGI overexpression + siRNA against UNG (fold change relative to GFP): 1.22
  Fold change relative to GFP in % of edited reads, C-to-T, U-2OS cells, BC27 + UGI overexpression (fold change relative to GFP): 1.92
  Fold change relative to GFP in % of edited reads, C-to-T, U-2OS cells, BC27 + UGI overexpression + siRNA against UNG (fold change relative to GFP): 1.97
  Share of total edits that are C-to-T-only edits, HuH-7 cells, BC22 or BC27 + UGI overexpression: 94%
